Results as given in patent US20040038876A1.

These substances were tested against Ptc-1 (assay: Ptc-1 binding assay, format not described).
“mutant 18 (Shh C1II/A169C + N46C), NEM-modified (from UniProt Q15465 25-197) (ligand)” gave a Ptc binding of 2 nM. “mutant 44 (Shh C1II/A169C + E113C), unmodified (from UniProt Q15465 25-197) (ligand)” gave a Ptc binding of 2.3 nM. “mutant 20 (Shh C1II/A169C + N68C), 5 K PEG (from UniProt Q15465 25-197) (ligand)” gave a Ptc binding of 3 nM. “mutant 21 (Shh C1II/A169C + N92C), NEM-modified (from UniProt Q15465 25-197) (ligand)” gave a Ptc binding of 0.3 nM. In the case of “mutant 25 (Shh C1II/A169C + S133C), unmodified (from UniProt Q15465 25-197) (ligand)”, the Ptc binding is reported as 3.7 nM. “mutant 25 (Shh C1II/A169C + S133C), 5 K PEG (from UniProt Q15465 25-197) (ligand)” gave a Ptc binding of 33 nM. Substance “mutant 44 (Shh C1II/A169C + E113C), NEM-modified (from UniProt Q15465 25-197) (ligand)” has a Ptc binding of 0.5 nM. “mutant 22 (Shh C1II/A169C + S154C), NEM-modified (from UniProt Q15465 25-197) (ligand)” was tested, and the Ptc binding was 8.3 nM. “mutant 25 (Shh C1II/A169C + S133C), NEM-modified (from UniProt Q15465 25-197) (ligand)” showed a Ptc binding of 0.4 nM. Work on “Shh C1II/A169C, 5 K PEG (from UniProt Q15465 25-197) (ligand)” yielded a Ptc binding of 1 nM. In the case of “mutant 17 (Shh C1II/A169C + N27C), 5 K PEG (from UniProt Q15465 25-197) (ligand)”, the Ptc binding is reported as 32 nM. Work on “mutant 17 (Shh C1II/A169C + N27C), unmodified (from UniProt Q15465 25-197) (ligand)” yielded a Ptc binding of 1.3 nM. Substance “mutant 20 (Shh C1II/A169C + N68C), unmodified (from UniProt Q15465 25-197) (ligand)” has a Ptc binding of 3 nM. With “mutant 21 (Shh C1II/A169C + N92C), 5 K PEG (from UniProt Q15465 25-197) (ligand)” the Ptc binding was 35 nM. In the case of “mutant 17 (Shh C1II/A169C + N27C), NEM-modified (from UniProt Q15465 25-197) (ligand)”, the Ptc binding is reported as 0.3 nM. Work on “mutant 19 (Shh C1II/A169C + Y57C), NEM-modified (from UniProt Q15465 25-197) (ligand)” yielded a Ptc binding of 1 nM. Substance “mutant 18 (Shh C1II/A169C + N46C), 5 K PEG (from UniProt Q15465 25-197) (ligand)” has a Ptc binding of 2 nM. “Shh C1II/A169C, NEM-modified (from UniProt Q15465 25-197) (ligand)” was tested, and the Ptc binding was 0.4 nM. In the case of “mutant 24 (Shh C1II/A169C + S112C), NEM-modified (from UniProt Q15465 25-197) (ligand)”, the Ptc binding is reported as 0.6 nM. In the case of “mutant 24 (Shh C1II/A169C + S112C), 5 K PEG (from UniProt Q15465 25-197) (ligand)”, the Ptc binding is reported as 8 nM. “wild type Shh, 5 K PEG (from UniProt Q15465 24-197) (ligand)” gave a Ptc binding of 42 nM. With “Shh C1II/A169C, unmodified (from UniProt Q15465 25-197) (ligand)” the Ptc binding was 1.1 nM. In the case of “mutant 22 (Shh C1II/A169C + S154C), unmodified (from UniProt Q15465 25-197) (ligand)”, the Ptc binding is reported as 3.9 nM. Work on “mutant 44 (Shh C1II/A169C + E113C), 5 K PEG (from UniProt Q15465 25-197) (ligand)” yielded a Ptc binding of 12 nM. In the case of “wild type Shh, NEM-modified (from UniProt Q15465 24-197) (ligand)”, the Ptc binding is reported as 1.4 nM. In the case of “mutant 19 (Shh C1II/A169C + Y57C), 5 K PEG (from UniProt Q15465 25-197) (ligand)”, the Ptc binding is reported as 3 nM. For “mutant 20 (Shh C1II/A169C + N68C), NEM-modified (from UniProt Q15465 25-197) (ligand)”, the Ptc binding was 2 nM. “wild type Shh, unmodified (from UniProt Q15465 24-197) (ligand)” showed a Ptc binding of 2.4 nM. “mutant 22 (Shh C1II/A169C + S154C), 5 K PEG (from UniProt Q15465 25-197) (ligand)” was tested, and the Ptc binding was 85 nM.
